This passage reports solubility of proPpiA after dilution from urea (18 µM protein, 30 min, centrifugation results from paper PMC12691745.

The test has as its target T1, proPpiA (UniProt P0AFL3).
T1 sequence: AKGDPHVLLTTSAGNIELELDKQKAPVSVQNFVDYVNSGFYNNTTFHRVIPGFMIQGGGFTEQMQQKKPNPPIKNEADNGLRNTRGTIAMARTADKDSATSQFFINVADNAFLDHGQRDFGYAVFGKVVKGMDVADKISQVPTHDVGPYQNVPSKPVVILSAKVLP

SecB, sequence (P0AG86 whole entry): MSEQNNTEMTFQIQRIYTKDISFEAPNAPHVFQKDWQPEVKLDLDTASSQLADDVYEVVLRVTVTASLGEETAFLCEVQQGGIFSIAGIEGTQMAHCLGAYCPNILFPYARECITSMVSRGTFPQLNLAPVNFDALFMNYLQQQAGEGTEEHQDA

Turning to “SecB (from UniProt P0AG86 1-155) (natural protein)”, the solubility of proPpiA after dilution from urea (18 µM protein, 30 min, centrifugation at 20,000× g), with 108 µM SecB; buffer control ~30% soluble was 70%.
